Data published in the nanobody polyreactivity screen of Harvey et al. (2022).

Assay: yeast display, Sf9 membrane polyspecificity reagent, FACS + sequencing; frameworks hold sequencing errors
How it was run: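 Galactose induction of a Saccharomyces cerevisiae BJ5465 synthetic nanobody display library ran 36–48 hours. The cells were then stained for 1 hour at 4 °C with 10% biotinylated, detergent-solubilized Sf9 membrane reagent, pulled down on streptavidin microbeads and FACS-sorted into low and high (top ~1%) gates on expression and reagent-binding fluorescence. Labels for polyreactivity follow the gate of origin.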

Sequence	polyreactivity (PSR sort gate)
QVQLVESGGGLVQAGGSLRLSCAASGSIFSDYAMGWYRQAPGKERELVAAITQSGGSTYADSVKGRFTISRDNAKNTVYLQMNSLKPEDTAVYYCAADEVPGFGYPPYPWFDYWGQGTQVTVSS	low polyreactivity
QVQLVESAGGLVQAGGSLRLSCAASGFTFGENALGWYRQAPGKERELVAAIRYSGGSTYYADSVKGRFTLSRDNAKNTVYLQLNSLKAEDTAVYYCNADTYALGAAVIPGDEYWGQGTQVTVSS	low polyreactivity
QVQLVESGGGLVQAGGSLRLSCAASGYTIISYGMGWYTQAPGKERELVAAISSGDRTNYADSVKGRFTISRDNAKNTVYLQMNSLKPEDTAVYYCNADRASSSVGYSDEFGHDSWGQGTQVTVSS	low polyreactivity
QVQLVESGGGLVQAGGSLRLICAASGSTFKGYAMGWYIQSPGKERELVAAISWPGGRTSYADSVKGRFTISRDNAKNTVYLQMNSLKPEDTAVYYCNKAWWVQKGYFFYYWEQGTQVTVSS	high polyreactivity
QVQLVESGGGLVQAGGSLRLSCAASGSIFGGYAMGWYRQAPGKERELVATINLGGGSTYADSVKGRFTISRDNAKNTVYLQMNSLKPEDTAVYYCAADVANSIYDYWGQGTQVTVSS	low polyreactivity
QVQLVESGGGLVQAGGSLRLSCAASGINFGYYAMGWYRQAPGKERELVAAISRRGGSTYYADSVKGRFTISRDNAKNTVYLQMNSLKPEDTAVYYCYKRRAAGGFPYVYWGQGTQVTVSS	high polyreactivity
QVQLVESGGGLVQAGGSLRLSCAASGIIFTDYAMGWYRQAPGKERELVAAISSGGGSTYYADSVKGRFTNSRDYAKNTVYLQMNSLKPEDTAVYYCAAQTSGSYGFDHWGQGTQVTVSS	high polyreactivity
QVQLVESGGGLVQAGGSLRLSSAASGLTYSVYAMGWYRQAPGKERELVAAISGSGGSTYYADSVKGRFTISRDNAKNTVYLQMNSLKPEDTAVYYCAARYDVHYDGMDYWGLGTQVTVSS	low polyreactivity
QVQLVESGGGLVQSGGSLRLSCAASGSIFTWYTMGWYRQAPGKERELVAAISWSGGRTYYADSVKGRFTISRDNAKNTVYLQMNSLKPEDTAVYYCAASAYGRPPFDYWGQGTQVTVSS	high polyreactivity
QVQLVESGGGLVQAGGSLRLTCAASGITFLHYAMGWYRQAPGKERELVATISRRGGSTYYADSVKGRFTNSRDNAKYTVYLQLNSLKPEDTAVYYCAADSYYLRHYSAGYYFKRYYWGQGTQVTVSS	high polyreactivity
QVQLVESGGGLVQAGGSLRLSCAASGFIFDYYAMGWYRQAPGKERELVAAITSRSGSTYYADSVKGRFTISRDNAKNTVYLQMNSLKPEDTAVYYCAARRARRDPVGYVYAKYGYWGQGTQVTVSS	high polyreactivity
QVQLVESGGGLVQAGGSLRLSCAASGFIFFTYAMGWYRQAPGKVRELVAAITSRGGRTYYADSVKGRFTISRDNAKNTVYLQMNILKPEDTAVYYCAVDPVRRYRYDYWGQGTQVTVSS	low polyreactivity
QVQLVESGGGLVQAGGSLRLSCAASGRIFNFYAMGWYRQAPGKERELVASITGSTGSTYYADSVKGRFTISRDNAKNTVYLQMNSLKPEDTAVYYCNTYRVTRDYYWGQGTQVTVSS	low polyreactivity
QVQLVESGGGLVQAGGSLRLSCAASGRTFRPYAMGWYRQAPGKERELVAAISQSVGSTYYADSVKGRFTISRDNAKNTVYLQMNSLKPEDTAVYYCAADRWSATHYVWYDYWGQGTQVTVSS	high polyreactivity
QVQLVESGGGLVQAGGSLRLSCAASGLTFGAYAMGWYRQAPGKEREFVAAITYSGGSTNYADSVKGRFTISRDNAKNTVYLQMNSLKPEDTAVYFCNAGYYSPWAFYPYAYWGQGTQVTVSS	high polyreactivity
QVQLVESGGGLVQAGGSLRLSCAASGFIFLYYAMGWYIQAPGKERELVAAITTRGGRTYYADSVKGRFTISRDNAKNTVYLQMNSLKPEDTAVYYCAADHLYWGLEYESWGQGTQVTVSS	low polyreactivity

Sequence	polyreactivity (PSR sort gate)
QVQLVESGGGLVQAGGSLRLSCAASGRTFVVYAMGWYRQAPGKERELVASISSIGDITNYADSVKGRFTISRDNAKNTVYLQMNSLKPEYTAVYYCTAPIGGSYNTRRAAEYDYWGQGTQVTVSS	low polyreactivity
QVQLVESGGGLVQAGGSLRLICAASGLTFTYYAMGWYRQAPGKERELVATISSSGRTNYADSVKGRFTISRDNAKNTVYLQMNSLKPEDTAVYYCAATLYHYWYADFDYWGQGTQVTVSS	high polyreactivity
QVQLVESGGGLVQAGGSLRLSCAASGRTITYYAMGWYRQAPGKERELVAAISSAGRTNYAVSVKGRFTISRDNAKNTVYLQMNCLKPEDTAVYYCAKRYGWASGYWNSNYGYLYDYWGQGTLVTVSS	high polyreactivity
QVQLEESGGRLVQPGGSLRLSCAASGFIFGIYDMGWYRQAPGKERELVAAITYSGSSTYYADSVKGRFTISRDNAKNTVYLQMNSLKPEDTAVYYCNKTAWDWDYWDPEYDYWGQGTQVTVSS	high polyreactivity
QVQLVESGGGLVQAGGSLRLSCAASGRIFVGYAMGWYRQAPGKERELVAAINRSGSSKYYADSVKGRFTISRDNAKNTVYLQMNSLKTEDTAVYYCNARSGNRYGPRYDYWGQGTQVTVSS	high polyreactivity
QYQLVESGGGLVQAGGSLRLSCAASGRIFLVYVMGWYRQAPGKERELVADITFSGGSTYYADSVKGRFTISRDNEKNNVYLQMNSLKPEYTAVYYCAAATWSFLDYWGQGTQVTVSS	high polyreactivity
QVQLVESGGGLVQAGGSLRFSCAASGLIFRGYVMGWYRQAPGKERELVAAISRRGVNTYYADSVKGRFTISRDNAKNTVYLQMNSLKPEDTAVYYCAAETHVGWPAKFDYWGQGTRVTVSS	high polyreactivity
QVQLVESGGGLVQAGGSLRLSCAASGSNFGFYAMGWYRQAPGKERELVAAIDSGDSTNYADSVKGRFTISRDNAKNTVYLQMNSLKPEDTAVYYCNAEAWWYFWFDYWGQGTQVTVSS	low polyreactivity
QVQLVESGGGLVQAGGSLRLSCAASGRIFTDNAMGWYRQAPGKERELVAAISWDGSSTSYADSVKGRFTISRDNAKNTVYLQMNSLKPEDTAVYDCAAVLYSGLYWYRLDYWGQGTRVTVSS	low polyreactivity
QVQLVESGGGLVQAGGSLRLSCAASGRIFLYNAMAWYRQAPGKERELVASISSGDTTNYADSVKGRFTISRDNAKNTVYLQMNSLKPEDTAVYYCNAEYGTPYSWFDYWGQGTQVTVSS	low polyreactivity
QVQLVVSGGGLDQARGSLRLSCAASGSNFFYYAMGWYRQAPWKERELVAGINWSGGSTYADSVKGRFTISRDNAKNTVYLQMNSLKPEDTAVYYCAAKFYSERSSYHYWGQGTQVTVSS	low polyreactivity
QVQLVESGGGLVQAGGSLRLSCAASGRTFYFNAMGWYRQAPGKERELVAAISGGGRTYYADSVKGRFTISRDNAKNTVYLQMNSLKPEDTAVYYCNVRRWYTYPLEKSNYWGQGTQVTVSS	high polyreactivity
QVQLVESGGGLVQAGGSLRLSCAASGSTCPYYAMGWYRQAPRKEMELVASIRKRGGGTSYADSVKGRFTISRDNAKNTVYLQMNSLKPEDTALYYCAVRVYQLRYTGYDYWGQCTQVTVSS	high polyreactivity
QVQLVESGGGLVQAGGSLRLSCAASGITFYVYAMGWYRQAPGKERELVAANSSGGGSTYYADSVKGRFTISRDNAKNTVYLQMNSLKPEDTAVYYCNKLFPGTYDGAHGYWGQGTQVTVSS	low polyreactivity
QVQLVESGGGLVQAGGSLRLSCADSGFIFLGNARGWYRQAAGKERELVAASSSGGSTYADSVKGRFTISRDNAKNTVYLQMNSLKPEDTAVYYCALDPPFPAQNYHEDDYWGQGTQVTVAS	low polyreactivity
